{"source": "paper doi:10.1101/2025.08.01.667454", "about": "(bioRxiv, 2025)", "binders": {"B1": {"name": "BAF60A^YLD+SWIB (BAF60A residues 144-407) (domain or fragment, human, UniProt Q96GM5 144-407, looked up)", "chain": "SQAYMDLLAFERKLDQTIMRKRLDIQEALKRPIKQKRKLRIFISNTFNPAKSDAEDGEGTVASWELRVEGRLLEDSALSKYDATKQKRKFSSFFKSLVIELDKDLYGPDNHLVEWHRTATTQETDGFQVKRPGDVNVRCTVLLMLDYQPPQFKLDPRLARLLGIHTQTRPVIIQALWQYIKTHKLQDPHEREFVICDKYLQQIFESQRMKFSEIPQRLHALLMPPEPIIINHVISVDPNDQKKTACYDIDVEVDDTLKTQMNSF"}}, "key": {"[1]": {"biological_target": "B1", "assay": "fluorescence polarisation"}, "[2]": {"biological_target": "B1", "assay": "ITC"}, "PU.1^FL S75A": {"biological_target": "PU.1^FL S75A (human, UniProt P17947 1-270, S75A)", "assay": "fluorescence polarisation"}, "PU.1[61–270]": {"biological_target": "PU.1[61–270] (human, UniProt P17947 61-270)", "assay": "ITC"}, "[3]": {"biological_target": "MBP-tagged full-length PU.1 (human, UniProt P17947 1-270)", "assay": "ITC"}, "[4]": {"biological_target": "B1", "assay": "fluorescence polarisation", "remark": "listed apart in the source"}}, "data": [{"binder": "FTELQSVQPPQLQQLYRHMELEQMHVLDTPM (peptide, UniProt P17947 70-100, looked up)", "note": "[PU.1[70–100]]", "values": [{"measurement": "IC50", "setting": "[1]", "value": 2.37, "unit": "µM"}, {"measurement": "Kd", "setting": "[2]", "value": 2.57, "unit": "µM"}]}, {"binder": "PU.1[1–117] (domain or fragment, human, UniProt P17947 1-117, looked up) MLQACKMEGFPLVPPPSEDLVPYDTDLYQRQTHEYYPYLSSDGESHSDHYWDFHPHHVHSEFESFAENNFTELQSVQPPQLQQLYRHMELEQMHVLDTPMVPPHPSLGHQVSYLPRM", "values": [{"measurement": "Kd", "setting": "[2]", "value": 2.8, "unit": "µM"}]}, {"binder": "B1", "values": [{"measurement": "binding result", "setting": "PU.1^FL S75A", "value": "binds"}, {"measurement": "Kd", "setting": "PU.1[61–270]", "value": 3.23, "unit": "µM"}, {"measurement": "Kd", "setting": "[3]", "value": 1.26, "unit": "µM"}, {"measurement": "stoichiometry N", "setting": "[3]", "value": 1}]}, {"binder": "SEFESFAENNFTELQSVQPPQLQQLYRHMELEQMHVLDTPM (peptide, UniProt P17947 60-100, looked up)", "note": "[PU.1[60–100]]", "values": [{"measurement": "Kd", "setting": "[2]", "value": 1.25, "unit": "µM"}]}, {"binder": "CEFESFAENNFTELQSVQPPQLQQLYRHMELEQMHVLDTPM (peptide, UniProt P17947 60-100, looked up)", "note": "[PU.1^60C-100]", "values": [{"measurement": "binding result", "setting": "[1]", "value": "binds"}]}, {"binder": "CEFESFAENNFTELQSVQPPQLQQLYRHMELEQMHVLDTPM (peptide, UniProt P17947 60-100, looked up, BODIPY TMR C5 maleimide on the cysteine introduced at position 60)", "note": "[PU.1[60–100]^TMR]", "values": [{"measurement": "Kd", "setting": "[4]", "value": 0.92, "unit": "µM"}]}]}
